Test results taken from publication PMC3206353.

How the values were obtained:
Conditions in all cases: remark: other sources report otherwise
[1] = target: T1, pyrene-labeled ADP-actin filaments (chicken breast muscle actin) (chicken), P68139; experiment: stopped-flow fluorescence kinetics
[2] = target: Mg-ATP-actin monomer (chicken breast muscle actin) (chicken), P68139; experiment: inhibition of nucleotide exchange
[3] = target: T1, pyrene-labeled ADP-actin filaments …; experiment: other fluorescence titration
[4] = target: T1, pyrene-labeled ADP-actin filaments …; experiment: other fluorescence titration; remark: listed apart in the source

B1: wild-type fission yeast cofilin, P78929 1-137 (natural protein)
chain: MSFSGVKVSPECLEAFQELKLGKSLRYVVFKMNDTKTEIVVEKKSTDKDFDTFLGDLPEKDCRYAIYDFEFNLGEGVRNKIIFISWSPDVAPIKSKMVYSSSKDTLRRAFTGIGTDIQATDFSEVAYETVLEKVTRK
modifications: here or on the partner: pyrene (pyrene iodoacetamide) on cysteine-374
- kobs (3 µM cofilin, 1 µM filaments) [1]: 73.6 s⁻¹
- kon [1]: 1.25e+07 M⁻¹ s⁻¹
- Kd [2]: 80 nM
- Ka of the cooperative model (Kd = 1/(ω*Ka)) [3]: 0.15 µM⁻¹
- Kd [3]: 330 nM
- binding cooperativity ω [3]: 19.9
- Kd [4]: 340 nM
